From patent publication US10800847

Experiments:
[1] = biological target: HLA-Cw*0303 (Cw9) (human); test: Luminex, iBead vs regular bead MFI, 1:8
[2] = biological target: HLA-Cw*1203 (Cw12) (human); test: Luminex, iBead vs regular bead MFI, 1:8
[3] = biological target: HLA-Cw*0702 (Cw7) (human); test: Luminex, iBead vs regular bead MFI, 1:8
[4] = biological target: HLA-Cw*1802 (Cw18) (human); test: Luminex, iBead vs regular bead MFI, 1:8
[5] = biological target: HLA-Cw*0304 (Cw10) (human); test: Luminex, iBead vs regular bead MFI, 1:8
[6] = biological target: HLA-Cw*0102 (Cw1) (human); test: Luminex, iBead vs regular bead MFI, 1:8
[7] = biological target: HLA-Cw*0602 (Cw6) (human); test: Luminex, iBead vs regular bead MFI, 1:8
[8] = biological target: HLA-Cw*1701 (Cw17) (human); test: Luminex, iBead vs regular bead MFI, 1:8
[9] = biological target: HLA-Cw*0302 (Cw10) (human); test: Luminex, iBead vs regular bead MFI, 1:8
[10] = biological target: HLA-Cw*0202 (Cw2) (human); test: Luminex, iBead vs regular bead MFI, 1:8
[11] = biological target: HLA-Cw*0801 (Cw8) (human); test: Luminex, iBead vs regular bead MFI, 1:8
HLA-B*8201 (B82) (human) = test: Luminex, iBead vs regular bead MFI, 1:8
[12] = biological target: HLA-Cw*1402 (Cw14) (human); test: Luminex, iBead vs regular bead MFI, 1:8
[13] = biological target: HLA-Cw*0401 (Cw4) (human); test: Luminex, iBead vs regular bead MFI, 1:8
[14] = biological target: HLA-Cw*0501 (Cw5) (human); test: Luminex, iBead vs regular bead MFI, 1:8
[15] = biological target: HLA-Cw*1601 (Cw16) (human); test: Luminex, iBead vs regular bead MFI, 1:8
[16] = biological target: HLA-A*6802 (A68) single antigen on Luminex beads (human); test: Luminex single antigen bead assay, iBeads (#6), IVIg 1:8
[17] = biological target: HLA-A*6901 (A69) single antigen on Luminex beads (human); test: as above
[18] = biological target: HLA-A*8001 (A80) single antigen on Luminex beads (human); test: as above
HLA-B*1401 (B64) (human) = test: iBead MFI against regular-bead MFI, IVIg diluted 1:8
HLA-B*1512 (B76) (human) [19] = test: as above
HLA-B*0702 (B7) (human) = test: as above
HLA-B*1301 (B13) (human) [20] = test: as above
HLA-B*1801 (B18) (human) = test: as above
HLA-B*1513 (B77) (human) = test: as above
HLA-B*1510 (B71) (human) [21] = test: as above
HLA-B*0801 (B8) (human) [22] = test: as above
HLA-B*1502 (B75) (human) [23] = test: as above
[24] = biological target: HLA-A*6901 (A69) single antigen on Luminex beads (human); test: Luminex single antigen bead assay, regular beads (#7), IVIg 1:8
[25] = biological target: HLA-A*7401 (A74) single antigen on Luminex beads (human); test: as above
[26] = biological target: HLA-A*8001 (A80) single antigen on Luminex beads (human); test: as above
HLA-B*1512 (B76) (human) [27] = test: Luminex regular beads (#7), IVIg diluted 1:8
HLA-B*1511 (B75) (human) = test: Luminex regular beads (#7), IVIg diluted 1:8
HLA-B*1516 (B63) (human) = test: Luminex regular beads (#7), IVIg diluted 1:8
HLA-B*1302 (B13) (human) = test: Luminex regular beads (#7), IVIg diluted 1:8
HLA-B*1402 (B65) (human) [28] = test: Luminex regular beads (#7), IVIg diluted 1:8
[29] = biological target: Serum albumin on negative control beads (HSA/BSA) (human or bovine); test: Luminex regular beads (#7), IVIg diluted 1:8
HLA-B*1510 (B71) (human) [30] = test: Luminex regular beads (#7), IVIg diluted 1:8
HLA-B*1502 (B75) (human) [31] = test: Luminex regular beads (#7), IVIg diluted 1:8
[32] = biological target: HLA-Cw*1502 (Cw15) (human); test: Luminex, iBead vs regular bead MFI, 1:8
[33] = biological target: Albumin (negative control beads) (human or bovine); test: Luminex, iBead vs regular bead MFI, 1:8
HLA-B*1402 (B65) (human) [34] = test: iBead MFI against regular-bead MFI, IVIg diluted 1:8
[35] = biological target: Serum albumin on negative control beads (HSA/BSA) (human or bovine); test: as above
HLA-B*1501 (B62) (human) = test: as above
HLA-B*1301 (B13) (human) [36] = test: Luminex regular beads (#7), IVIg diluted 1:8
HLA-B*0801 (B8) (human) [37] = test: Luminex regular beads (#7), IVIg diluted 1:8

| Substance | Difference % [1] | Difference % [2] | Difference % [3] | Difference % [4] | Difference % [5] | Difference % [6] | Difference % [8] | Difference % [10] | Difference % [11] | Difference % (HLA-B*8201 (B82) (human)) | Difference % [12] | Difference % [13] | Difference % [14] | Difference % [15] | Difference % (iBead vs regular bead) (HLA-B*1401 (B64) (human)) | Difference % (iBead vs regular bead) (HLA-B*1512 (B76) (human) [19]) | Difference % (iBead vs regular bead) (HLA-B*0702 (B7) (human)) | Difference % (iBead vs regular bead) (HLA-B*1801 (B18) (human)) | Difference % (iBead vs regular bead) (HLA-B*1513 (B77) (human)) | Difference % (iBead vs regular bead) (HLA-B*1510 (B71) (human) [21]) | also measured |
| --- | --- | --- | --- | --- | --- | --- | --- | --- | --- | --- | --- | --- | --- | --- | --- | --- | --- | --- | --- | --- | --- |
| IVIg Gamunex-C Lot NKLG1 (antibody) | 1% | -32% | -54% | -58% | -28% | -2% | -6% | -32% | -40% | -55% | -45% | -51% | -47% | -52% | -33% | 244% | 39% | 112% | -45% | 1% | Difference % [7]: -65%; Difference % [9]: -2%; MFI [16]: 4660 MFI; MFI [17]: 6240 MFI; MFI [18]: 3970 MFI; Difference % (iBead vs regular bead) (HLA-B*1301 (B13) (human) [20]): -31%; Difference % (iBead vs regular bead) (HLA-B*0801 (B8) (human) [22]): -31%; Difference % (iBead vs regular bead) (HLA-B*1502 (B75) (human) [23]): 32%; MFI [24]: 2810 MFI; MFI [25]: 666 MFI; MFI [26]: 3190 MFI; MFI (HLA-B*1512 (B76) (human) [27]): 816 MFI; MFI (HLA-B*1511 (B75) (human)): 4060 MFI; MFI (HLA-B*1516 (B63) (human)): 3760 MFI; MFI (HLA-B*1302 (B13) (human)): 3100 MFI; MFI (HLA-B*1402 (B65) (human) [28]): 2250 MFI; MFI [29]: 10800 MFI; MFI (HLA-B*1510 (B71) (human) [30]): 1430 MFI; MFI (HLA-B*1502 (B75) (human) [31]): 1520 MFI |
| IVIg GamaSTAN S/D (Talecris Biotherapeutics, USA) (antibody) | -9% | -54% | -54% | -2% | -26% | -38% | 22% | 13% | -32% | 10% | -57% | -20% | -9% | -45% | -85% | 125% | -10% | 0% | -27% | -43% | Difference % [32]: 24%; Difference % [33]: 33%; Difference % (iBead vs regular bead) (HLA-B*1402 (B65) (human) [34]): -100%; Difference % (iBead vs regular bead) [35]: 33%; Difference % (iBead vs regular bead) (HLA-B*1501 (B62) (human)): 270%; Difference % (iBead vs regular bead) (HLA-B*0801 (B8) (human) [22]): -63%; MFI (HLA-B*1512 (B76) (human) [27]): 2660 MFI; MFI (HLA-B*1511 (B75) (human)): 2820 MFI; MFI (HLA-B*1516 (B63) (human)): 3540 MFI; MFI (HLA-B*1302 (B13) (human)): 2220 MFI; MFI (HLA-B*1301 (B13) (human) [36]): 2240 MFI; MFI (HLA-B*1402 (B65) (human) [28]): 670 MFI; MFI [29]: 3790 MFI; MFI (HLA-B*1510 (B71) (human) [30]): 857 MFI; MFI (HLA-B*0801 (B8) (human) [37]): 884 MFI; MFI (HLA-B*1502 (B75) (human) [31]): 526 MFI |
